Measurements published in article PMC3202535, “A Novel Metagenomic Short-Chain Dehydrogenase/Reductase Attenuates Pseudomonas aeruginosa Biofilm Formation and Virulence on Caenorhabditis elegans” (PLoS ONE, 2011).

Legend:
[1] = biological target: BpiB09 (soil metagenome (not yet cultivated microbe)); experiment: SEC; gel permeation chromatography during purification (data not shown)
[2] = biological target: BpiB09 (soil metagenome (not yet cultivated microbe)); experiment: AUC; analytical ultracentrifugation of recombinant BpiB09 and its mutants; conditions not given
[3] = biological target: BpiB09 (soil metagenome (not yet cultivated microbe)); experiment: crystal structure; BpiB09 with NADP+; crystals from 0.1 M citric acid pH 4.5 and 1.5 M LiSO4 at 292 K; space group I422, four copies per asymmetric unit, tetramer completed by a crystallographic dyad; 2.4 Å
BpiB09 [4] = biological target: T1, BpiB09 (uncultured bacterium Bio5, UniProt B2BKB1); experiment: X-ray crystal structure, […] A; type: binding; conditions: 1 mM NADP+ added before crystallisation; 0.1 M citric acid pH 4.5, 1.5 M LiSO4; 292 K; nucleotide site; modelled as partial NADP+, nicotinamide half poorly defined
T1 construct: about 720 bp gene; His-tag purified from E. coli BL21 DE3 (pET-19b; also cloned in pET-21a); homotetramer

BpiB09 [5] = biological target: T1, BpiB09; experiment: HPLC-MS of reduction to 3-hydroxy-C12-HSL; type: biochemical; conditions: 1 mM NADPH, 100 mM potassium phosphate pH 7.0, 20% DMSO, 30 C, 16 h; 4 mM substrate (5 mM in Results)

T1 sequence (B2BKB1 entry or part of it): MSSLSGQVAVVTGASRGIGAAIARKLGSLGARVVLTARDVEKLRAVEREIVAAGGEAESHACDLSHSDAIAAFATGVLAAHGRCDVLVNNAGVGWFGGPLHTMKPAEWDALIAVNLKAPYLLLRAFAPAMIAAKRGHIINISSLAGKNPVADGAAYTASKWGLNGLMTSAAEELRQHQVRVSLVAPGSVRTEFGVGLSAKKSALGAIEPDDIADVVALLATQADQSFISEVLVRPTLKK

## BpiB09 (enzyme)
[1]
  stoichiometry N: 4
[2]
  stoichiometry N: 4
[3]
  stoichiometry N: 4

## NC(=O)c1ccc[n+]([C@@H]2O[C@H](COP(=O)(O)OP(=O)(O)OC[C@H]3O[C@@H](n4cnc5c(N)ncnc54)[C@H](OP(=O)(O)O)[C@@H]3O)[C@@H](O)[C@H]2O)c1 [NADP+]
BpiB09 [4]
  X-ray crystal structure, 2.4 A: adding NADP+ prior to crystallization resulted in a higher occupancy of the bound NADP+

## CCCCCCCCCC(=O)CC(=O)N[C@H]1CCOC1=O [3-oxo-C12-HSL, N-(3-oxo-dodecanoyl)-L-homoserine lactone]
BpiB09 [5]
  HPLC-MS of reduction to 3-hydroxy-C12-HSL: analyses of purified enzyme resulted in a turnover of 3-oxo-C12-HSL to 3-hydroxy-C12-HSL
